Source: publication PMC8575367
Read-outs that look alike come from different tables or passages of the source.

What was measured:
Assay in all cases: fluorescence anisotropy
[1] = target: T1, CPSF30-5F (five CCCH domains) (Bos taurus, UniProt O19137 33-170)
[2] = target: T1, CPSF30-5F (five CCCH domains); remark: listed apart in the source
[3] = target: T1, CPSF30-5F (five CCCH domains); remark: listed apart in the source
[4] = target: T1, CPSF30-5F (five CCCH domains); remark: listed apart in the source
[5] = target: T1, CPSF30-5F (five CCCH domains); remark: listed apart in the source
[6] = target: T1, CPSF30-5F (five CCCH domains); remark: listed apart in the source
[7] = target: T1, CPSF30-5F (five CCCH domains); remark: listed apart in the source
[8] = target: CPSF30-FL (five CCCH + CCHC zinc knuckle) (Bos taurus, UniProt O19137 1-243)
[9] = target: T1, CPSF30-5F (five CCCH domains); remark: listed apart in the source
[10] = target: T1, CPSF30-5F (five CCCH domains); remark: listed apart in the source
[11] = target: T1, CPSF30-5F (five CCCH domains); remark: listed apart in the source

T1 sequence (O19137 33-170): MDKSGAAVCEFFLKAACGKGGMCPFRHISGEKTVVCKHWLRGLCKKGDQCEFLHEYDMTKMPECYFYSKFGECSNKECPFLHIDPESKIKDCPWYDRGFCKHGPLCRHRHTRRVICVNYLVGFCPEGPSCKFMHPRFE
CPSF30-FL (five CCCH + CCHC zinc knuckle), sequence (O19137 whole entry, the tested form may be a part): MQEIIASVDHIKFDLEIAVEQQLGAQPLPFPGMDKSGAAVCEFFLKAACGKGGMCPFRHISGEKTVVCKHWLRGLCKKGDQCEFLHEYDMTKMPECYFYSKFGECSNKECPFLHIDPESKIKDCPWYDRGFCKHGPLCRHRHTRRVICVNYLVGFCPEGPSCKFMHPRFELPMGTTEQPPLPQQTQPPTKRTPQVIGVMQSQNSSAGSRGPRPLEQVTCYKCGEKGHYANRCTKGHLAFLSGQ

Binder: UCUCACUUUAAUAAUAAGAAUCAUGCUUAU (ssRNA) [ATHA (α-thalassemia)]
- apparent K (half saturation) [1]: 135 ± 6.3 nM

Binder: UCUCACUUUAAUAACAAAAAUCAUGCUUAU (ssRNA) [BTHA (β-thalassemia)]
- apparent K (half saturation) [2]: 148 ± 9 nM

Binder: UUAUUAUUUAUUUAUUUA (ssRNA) [ARE-18]
- apparent K (half saturation) [2]: 671 ± 49 nM

Binder: UUUAUUAUUUAUUUAUUUAG (ssRNA) [ARE-20]
- apparent K (half saturation) [2]: 499 ± 37 nM

Binder: AUUUAUUUAUUAUUUAUUUAUUUA (ssRNA) [ARE-24]
- apparent K (half saturation) [3]: 265 ± 31 nM

Binder: UUUAUUAUUUAUUUAUUAUUUAUUUAUUUA (ssRNA) [ARE-30]
- apparent K (half saturation) [4]: 163 ± 10 nM

Binder: GUGAUUAUUUAUUAUUUAUUUAUUAUUUAUUUAUUUAG (ssRNA) [ARE-38]
- apparent K (half saturation) [5]: 141 ± 5 nM

Binder: UCUCACUUUAAUAAUGAAAAUCAUGCUUAU (ssRNA) [IPEX]
- binding result [6]: no binding

Binder: UCUCACUUUAAUAAUAGAAAUCAUGCUUAU (ssRNA) [LUPUS]
- binding result [6]: no binding

Binder: UCUCACUUUAAUAUUAAGAAUCAUGCUUAU (ssRNA) [FABRY]
- binding result [6]: no binding

Binder: UCUCACUUUAAUAGUAAAAAUCAUGCUUAU (ssRNA) [P2AtoG]
- apparent K (half saturation) [7]: 376 ± 12 nM

Binder: CACUUUAAUAAUAAAAAUCAUGCU (ssRNA) [α-syn24 (labeled)]
- binding result [8]: binds

Binder: UCUCACUUUAAUAUUAAAAAUCAUGCUUAU (ssRNA) [P2AtoU]
- apparent K (half saturation) [9]: 207 ± 0.6 nM

Binder: UCUCACUUUAAUAAUCAAAAUCAUGCUUAU (ssRNA) [P4AtoC]
- apparent K (half saturation) [7]: 335 ± 38 nM

Binder: UCUCACUUUAAUAAUACAAAUCAUGCUUAU (ssRNA) [P5AtoC]
- apparent K (half saturation) [9]: 278 ± 29 nM

Binder: UCUCACUUUAAUAAUAACAAUCAUGCUUAU (ssRNA) [P6AtoC]
- apparent K (half saturation) [7]: 309 ± 26 nM

Binder: UCUCACUUUAAAAAUAAAAAACAUGCUUAU (ssRNA) [Most freq fl (AAA flanks)]
- apparent K (half saturation) [1]: 226 ± 1.6 nM

Binder: UCUCACUUUUCGAAUAAAUCGCAUGCUUAU (ssRNA) [Least freq fl (UCG flanks)]
- apparent K (half saturation) [10]: 309 ± 25 nM

Binder: AUUAUUUAUUUAUUUA (ssRNA) [ARE-16]
- apparent K (half saturation) [11]: 1000 ± 82 nM
